B1: SEQ ID NO 295 (peptide)
peptide: LSVCSCPPGQLYCMVE
modifications: disulfide (positions not given here); also: disulfide between two of the three Cys, which not given here

Bridge positions count the residues as written; N and C are the ends. Ends that are not written are not given here. Where only a bound is given, the exact number is not on record here.

The test addresses T1, human IL-2Rα subunit (human, UniProt P01589 22-213, limits assumed).
T1 construct: also called CD25
T1 sequence (looked up): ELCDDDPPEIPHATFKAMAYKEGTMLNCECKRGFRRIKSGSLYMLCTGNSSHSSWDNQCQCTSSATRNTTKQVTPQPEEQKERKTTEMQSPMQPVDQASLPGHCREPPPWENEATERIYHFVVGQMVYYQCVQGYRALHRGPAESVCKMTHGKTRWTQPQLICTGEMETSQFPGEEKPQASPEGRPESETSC
Take RQCNCLSPGELVNCQQ [SEQ ID NO 298]: the IC50 (commonly the concentration that inhibits the measured activity by half) was less than 100 µM.

RHACKTWYRMCIVS [SEQ ID NO 277] had an IC50 of less than 100 µM.

AVSCNSWRCIPW [SEQ ID NO 251] came in with an IC50 of less than 100 µM.

As to WVICSAVGCRPF (disulfide 4-9 (inferred)) [SEQ ID NO 31], the IC50 was less than 100 µM.

Turning to WVICSALGCRPF [SEQ ID NO 35], the IC50 was less than 100 µM.

Turning to WVACNRVTGSCRPI [SEQ ID NO 279], the 50% inhibitory concentration (IC50) was less than 100 µM.

SRCSFDVTKQECVF (disulfide 3-12 (inferred)) [SEQ ID NO 288] came in with a 50% inhibitory concentration (IC50) of less than 100 µM.

Take RSVCCSSYGCRACFG [SEQ ID NO 284]: the IC50 was less than 100 µM.

CMLKCTNAICECIF [SEQ ID NO 286]: the concentration for half-maximal inhibition (IC50) was less than 100 µM.

Molecule WVACNRLSGCCRPI [SEQ ID NO 281] had an IC50 of less than 100 µM.

TTCCTSEGCHKCITL [SEQ ID NO 291] came in with an IC50 of less than 100 µM.

With WWISCLRDLRCLEYF [SEQ ID NO 276], the IC50 is less than 100 µM.

In turn, WVICSALGCRSM [SEQ ID NO 30] gave an IC50 of less than 100 µM.

The molecule WVICSAMGCRSI [SEQ ID NO 32] gave an IC50 of less than 100 µM.

For the molecule WVICSAFGCRSM [SEQ ID NO 34], the IC50 was less than 100 µM.

In turn, WVICSALGCRSI [SEQ ID NO 33] had a 50% inhibitory concentration (IC50) of less than 100 µM.

For the molecule WVICSALGCRSL [SEQ ID NO 29], the IC50 was less than 100 µM.

On to CRMMQGTYGWTCLF (disulfide 1-12 (inferred)) [SEQ ID NO 258], for which the IC50 is less than 100 µM.

With CVVCSALGCRACVPR [SEQ ID NO 269], the IC50 is less than 100 µM.

As to STWCCLHPGVGECQAV [SEQ ID NO 296], the IC50 is less than 100 µM.

Molecule VCCHQTFGCYRCKQ [SEQ ID NO 268] showed a half-maximal inhibitory concentration (IC50) of less than 100 µM.

For AVCCDGNSCRRC [SEQ ID NO 252], the IC50 was less than 100 µM.

The molecule CVLREGAEGWECVWR [SEQ ID NO 257] returned an IC50 of less than 100 µM.

As to QVCCTSRGCRVCAPV [SEQ ID NO 263], the IC50 is less than 100 µM.

For the molecule HTVCCQDWGCRSCSG [SEQ ID NO 282], the IC50 was less than 100 µM.

CTLYRSAPGVWLCIF [SEQ ID NO 260]: the IC50 is less than 100 µM.

In the case of HEICCGPPGCHSCSVT [SEQ ID NO 294], the IC50 is less than 100 µM.

In the case of IRCRLDPPGSYKTCVF (disulfide 3-14 (inferred)) [SEQ ID NO 273], the half-maximal inhibitory concentration (IC50) is less than 100 µM.

On to TTQSCTLRYCWLLQ (disulfide 5-10 (inferred)) [SEQ ID NO 275], for which the IC50 is less than 100 µM.

In turn, RVCCSMVGCRSCNL [SEQ ID NO 264] registered an IC50 of less than 100 µM.

Consider CKLTCTSSTCSCVF [SEQ ID NO 285], for which the IC50 was less than 100 µM.

As for LECQPYRGPLYYCQD [SEQ ID NO 289], the IC50 was less than 100 µM.

For the molecule VCFNFRGTVGRHCW [SEQ ID NO 255], the IC50 is less than 100 µM.

As for RVCCTFAGCRVCHK [SEQ ID NO 265], the IC50 is less than 100 µM.

Molecule MACCTPRGCRPC [SEQ ID NO 283] came in with a half-maximal inhibitory concentration (IC50) of less than 100 µM.

The molecule RYCSPLIPGSALGCPR [SEQ ID NO 272] showed a half-inhibitory concentration (IC50) of less than 100 µM.

Take TCRLKRSGPNSWECI [SEQ ID NO 249]: the IC50 was less than 100 µM.

As for RVCCTSDGCRGCRQ [SEQ ID NO 266], the IC50 was less than 100 µM.

As to LTCLIFKPGTHRHCPV [SEQ ID NO 271], the IC50 is less than 100 µM.

Take B1: the IC50 is less than 100 µM.

Take CLVFDQYGNYKRRC [SEQ ID NO 261]: the IC50 was less than 100 µM.

TVCCTVQGCWPCSR [SEQ ID NO 267]: the 50% inhibitory concentration (IC50) is less than 100 µM.

Regarding WCIGQPLFRQGSCK [SEQ ID NO 250], the half-maximal inhibitory concentration (IC50) was less than 100 µM.

For the molecule SICCTPQLCHSCDG [SEQ ID NO 290], the IC50 was less than 100 µM.

FVHCTLLGCWSG [SEQ ID NO 24] returned an IC50 of less than 100 µM.

SHGVCCTQSSCRSCR [SEQ ID NO 280] registered an IC50 of less than 100 µM.

For CRVWCNQAECMCIF [SEQ ID NO 287], the IC50 was less than 100 µM.

As to VVHCLQSGCYSVGSG [SEQ ID NO 300], the IC50 was less than 100 µM.

In turn, VRCRQNEPGGAYWCSS [SEQ ID NO 256] displayed an IC50 of less than 100 µM.

RCLDLGGSVGLVCF [SEQ ID NO 254] yielded an IC50 of less than 100 µM.

The molecule MVSCTDLGCVVVGGG [SEQ ID NO 299] had an IC50 of less than 100 µM.

For RGVICNHAGCRIWYG [SEQ ID NO 274], the IC50 was less than 100 µM.

Molecule TIKCGSSGWCWVEAG [SEQ ID NO 301] came in with an IC50 of less than 100 µM.

For AICSEDEGGELCCWH [SEQ ID NO 293], the IC50 was less than 100 µM.

CILNDTIQGWVCIY [SEQ ID NO 259] yielded an IC50 of less than 100 µM.

With CVACSSDGCSPIIC [SEQ ID NO 292], the 50% inhibitory concentration (IC50) is less than 100 µM.

IVCCNMFGCHTCRN [SEQ ID NO 262] displayed an IC50 of less than 100 µM.

VTQCFDGPGSFRCCYQ [SEQ ID NO 297] came in with an IC50 of less than 100 µM.

As to HEICCGPPGCHSCSVT [SEQ ID NO 303], the IC50 is less than 100 µM.

Consider LDLTYDELLACT [SEQ ID NO 2], for which the IC50 was less than 100 µM.

FVHCSLMGCWCG [SEQ ID NO 253] showed an IC50 of less than 100 µM.

For the molecule VWDCFVRGWEAGVAAVGE [SEQ ID NO 270], the half-maximal inhibitory concentration (IC50) was less than 100 µM.

Molecule MVSCTDLGCVVVGGG [SEQ ID NO 302] returned an IC50 of less than 100 µM.

AVSCSRLTGRCHSL [SEQ ID NO 278] showed a half-inhibitory concentration (IC50) of less than 100 µM.

Source of the values: US20200399314A1 (MEDIKINE, published 2020).
